Patent US20150110788A1 (published 2015)

T1: VEGF (UniProt P15692 27-191)
T1 chain: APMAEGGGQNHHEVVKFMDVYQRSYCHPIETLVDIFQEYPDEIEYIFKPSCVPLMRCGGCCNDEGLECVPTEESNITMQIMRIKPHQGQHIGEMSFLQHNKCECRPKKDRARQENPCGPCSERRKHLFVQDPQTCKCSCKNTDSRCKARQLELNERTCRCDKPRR

B1: HuGAL-F2 (antibody, V domains shown)
VH: EVQLVQSGAEVKKPGSSVKVSCKASGYTFTNYVINWVRQAPGQGLEWIGYNDPYNDVSKYNEKFKGRATITSDKSTSTAYMELSSLRSEDTAVYYCAKEGGGKYVYAMDSWGQGTTVTVSS
VL: DIQMTQSPSSLSASVGDRVTITCKASQSVSSDVGWYQQKPGKAPKLLIYSGSNRYSGVPSRFSGSGSGTDFTLTISSLQPEDFATYYCQQDYYSPWTFGQGTKVEIK
B2: X-Ava/F2 (bispecific antibody)
light 1: DIQMTQSPSSLSASVGDRVTITCKASQSVSSDVGWYQQKPGKAPKLLIYSGSNRYSGVPSRFSGSGSGTDFTLTISSLQPEDFATYYCQQDYYSPWTFGQGTKVEIKRTVAAPSVFIFPPSDEQLKSGTASVVCLLNNFYPREAKVQWKVDNALQSGNSQESVTEQDSKDSTYSLSSTLTLSKADYEKHKVYACEVTHQGLSSPVTKSFNRGEC
heavy 1: not shown
light 2: DIQMTQSPSSLSASVGDRVTITCSASQDISNYLNWYQQKPGKAPKVLIYFTSSLHSGVPSRFSGSGSGTDFTLTISSLQPEDFATYYCQQYSTVPWTFGQGTKVEIKSSASTKGPSVFPLAPSSKSTSGGTAALGCLVKDYFPEPVTVSWNSGALTSGVHTFPAVLQSSGLYSLSSVVTVPSSSLGTQTYICNVNHKPSNTKVDKRVEPKSC
heavy 2: not shown

Tests used:
FGF2 = FGF2 (UniProt P09038 143-288); experiment: ELISA
Sequence of FGF2 (P09038 143-288): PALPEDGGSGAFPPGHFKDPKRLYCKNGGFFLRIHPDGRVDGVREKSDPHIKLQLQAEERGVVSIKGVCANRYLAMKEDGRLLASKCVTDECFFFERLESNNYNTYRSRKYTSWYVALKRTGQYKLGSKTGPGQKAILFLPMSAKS

VEGF = biological target: T1, VEGF; experiment: ELISA

Binder | EC50 (FGF2) | EC50 (VEGF)
B1 | 0.1 nM | –
B2 | 0.35 nM | 1.43 nM
